Source: PMC5372246, “Co-production of hydrogen and ethanol from glucose in Escherichia coli by activation of pentose-phosphate pathway through deletion of phosphoglucose isomerase (pgi) and overexpression of glucose-6-phosphate dehydrogenase (zwf) and 6-phosphogluconate dehydrogenase (gnd)” (Biotechnology for Biofuels, 2017)

Tested on: T1, NC(=O)c1ccc[n+]([C@@H]2O[C@H](COP(=O)(O)OP(=O)(O)OC[C@H]3O[C@@H](n4cnc5c(N)ncnc54)[C@H](OP(=O)(O)O)[C@@H]3O)[C@@H](O)[C@H]2O)c1
T1 construct: full-length, C-terminal His-tag, Ni-NTA purified from E. coli, 55 kDa on SDS-PAGE
Assay: purified protein
Type: biochemical, Escherichia coli
Details: co-substrate glucose-6-phosphate, general assay: Tris-HCl pH 7.5, 1 mM MgCl2, 30 °C

“Zwf (ZE), glucose-6-phosphate dehydrogenase (Escherichia coli K-12)” gave a Km of 15 µM.
